Patent publication US20190002888A1 (INSTITUT NATIONAL DE LA SANTE ET DE LA RECHERCHE MEDICALE …, published 2019)

T1: SNAP tagged mouse FLT3, full-length, expressed in HEK293T cells (mouse, UniProt Q00342 28-1000, SNAP tag covalently labelled with SNAP-Lumi4-Tb)
T1 construct: whole, on cells; Transiently transfected HEK293T cells; also called full-length mFLT3; mFLT3; not shown: SNAP tag (plasmid from Cisbio Bioassays)
T1 sequence (looked up): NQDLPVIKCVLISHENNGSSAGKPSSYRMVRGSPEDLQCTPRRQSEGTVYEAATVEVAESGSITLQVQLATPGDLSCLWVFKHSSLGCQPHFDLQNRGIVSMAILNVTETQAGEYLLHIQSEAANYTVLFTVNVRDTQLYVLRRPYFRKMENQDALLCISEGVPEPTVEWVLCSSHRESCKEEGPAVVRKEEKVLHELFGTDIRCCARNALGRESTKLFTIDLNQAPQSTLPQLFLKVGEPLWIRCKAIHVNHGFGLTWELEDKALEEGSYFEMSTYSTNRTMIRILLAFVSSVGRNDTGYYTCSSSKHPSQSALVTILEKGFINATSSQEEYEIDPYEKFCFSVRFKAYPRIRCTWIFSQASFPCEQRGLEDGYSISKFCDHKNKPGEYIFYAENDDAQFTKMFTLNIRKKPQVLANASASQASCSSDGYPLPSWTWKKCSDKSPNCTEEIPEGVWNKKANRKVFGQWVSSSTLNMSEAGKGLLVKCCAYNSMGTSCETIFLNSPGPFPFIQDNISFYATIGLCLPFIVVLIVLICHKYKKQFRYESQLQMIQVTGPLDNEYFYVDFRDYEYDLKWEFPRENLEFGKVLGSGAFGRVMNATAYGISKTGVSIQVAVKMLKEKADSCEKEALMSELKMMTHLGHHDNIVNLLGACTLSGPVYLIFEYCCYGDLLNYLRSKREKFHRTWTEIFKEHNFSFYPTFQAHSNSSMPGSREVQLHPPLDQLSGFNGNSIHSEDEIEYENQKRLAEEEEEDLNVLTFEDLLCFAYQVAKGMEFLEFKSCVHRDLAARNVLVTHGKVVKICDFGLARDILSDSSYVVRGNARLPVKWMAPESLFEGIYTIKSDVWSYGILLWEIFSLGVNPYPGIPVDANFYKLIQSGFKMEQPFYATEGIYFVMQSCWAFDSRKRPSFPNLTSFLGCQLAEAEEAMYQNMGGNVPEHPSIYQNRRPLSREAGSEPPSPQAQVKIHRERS

T2: SNAP tagged human FLT3, full-length, expressed in HEK293T cells (human, UniProt P36888 27-993, SNAP tag covalently labelled with SNAP-Lumi4-Tb)
T2 construct: whole, on cells; Transiently transfected HEK293T cells; also called full-length hFLT3; hFLT3; not shown: SNAP tag (plasmid from Cisbio Bioassays)
T2 sequence (looked up): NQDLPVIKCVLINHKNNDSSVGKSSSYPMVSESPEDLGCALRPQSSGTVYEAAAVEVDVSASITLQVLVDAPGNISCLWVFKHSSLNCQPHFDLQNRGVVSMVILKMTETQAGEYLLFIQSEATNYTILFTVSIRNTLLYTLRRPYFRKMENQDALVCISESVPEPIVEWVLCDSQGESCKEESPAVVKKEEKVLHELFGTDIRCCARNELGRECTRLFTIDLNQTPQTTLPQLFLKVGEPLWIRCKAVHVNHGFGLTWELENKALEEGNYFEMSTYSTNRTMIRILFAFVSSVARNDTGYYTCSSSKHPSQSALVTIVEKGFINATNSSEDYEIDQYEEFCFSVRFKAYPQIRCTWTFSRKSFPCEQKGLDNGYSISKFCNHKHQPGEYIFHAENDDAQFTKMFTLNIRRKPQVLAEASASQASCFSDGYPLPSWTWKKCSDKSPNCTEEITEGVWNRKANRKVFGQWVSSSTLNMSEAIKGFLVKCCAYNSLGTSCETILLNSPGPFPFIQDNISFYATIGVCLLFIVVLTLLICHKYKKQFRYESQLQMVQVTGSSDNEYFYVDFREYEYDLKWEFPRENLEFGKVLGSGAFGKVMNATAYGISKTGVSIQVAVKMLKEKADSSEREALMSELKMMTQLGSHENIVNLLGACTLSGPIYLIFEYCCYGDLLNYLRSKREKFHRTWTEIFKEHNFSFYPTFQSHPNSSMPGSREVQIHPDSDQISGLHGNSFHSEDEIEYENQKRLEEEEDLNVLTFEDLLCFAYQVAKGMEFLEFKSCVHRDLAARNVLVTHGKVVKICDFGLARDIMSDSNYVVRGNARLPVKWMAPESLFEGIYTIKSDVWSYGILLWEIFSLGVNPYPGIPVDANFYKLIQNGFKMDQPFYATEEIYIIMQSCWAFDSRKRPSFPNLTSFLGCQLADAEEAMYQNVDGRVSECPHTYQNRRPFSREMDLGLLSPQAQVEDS


Columns and labels:
[1] = biological target: FLT3 receptor in adult mouse DRG sensory neurons (mouse) (UniProt Q00342); experiment: cell-based or functional assay
[2] = biological target: T1, SNAP tagged mouse FLT3, full-length, …; experiment: TR-FRET displacement of 0.5 nM Red-FL on HEK293T cells expressing SNAP tagged full-length mFLT3
Protocol: (§1) TR-FRET binding assays. TR-FRET binding assays were performed 24 h after transfection on fresh cells. When using frozen cells, binding assays were carried out immediately after cells thawing. When the assay was carried out on adherent cells in 96-well plates, the cell density was 50,000 cells per well, while a density of 10,000 cells per well was used to carry out binding assays in suspension in 384-well small volume plates.
(§2) Cells were incubated with 0.5 nM Red-FL in the presence of increasing concentrations of the antibody. In the plates containing labelled cells, 50 μl of Tag-lite® labelling medium, 25 μl of compounds to be tested were added and incubated for 1 h at room temperature prior to the addition of 25 μl of Red-FL. Plates were then incubated at room temperature for 4 h or overnight before signal detection.
(§3) Signal detection. Signal was detected using an advanced fluorescence microplate reader (RUBYstar, BMG Labtech) equipped with a HTRF optic module allowing a donor excitation at 337 nm and a signal collection both at 665 nm and 620 nm. A frequency of 20 flashes/well is selected for the laser excitation. […] Results were expressed as percentage of signal measured in the presence of Red-FL alone, corrected for non-specific binding measured in the presence of […].

[3] = biological target: T2, SNAP tagged human FLT3, full-length, …; experiment: TR-FRET displacement of 0.5 nM Red-FL on HEK293T cells expressing SNAP tagged full-length hFLT3
Protocol: as §1, §2, §3

Row | mean fold increase in TRPV1 response, ΔFarea [1] | mean fold increase in TRPV1 response, ΔFpeak [1] | potentiation of the capsaicin response ([Ca2+]i, Fura-2) in DRG neurons: share of capsaicin-responding cells potentiated [1] | IC50 [2] | IC50 [3] | Molecule
1 | 512% | 212% | 56% | – | – | FL (FLT3-Ligand, from ABCYS SA)
2 | – | – | – | ~17 µg/mL | ~17 µg/mL | A3 antibody (human monoclonal antibody against FLT3) (antibody, V domains shown, also called antibody A3; anti-FLT3 A3 antibody) VH: EVQLVESGGSLVKPGGSLRLSCAASGFTFSNSYMNWVRQAPGKGLEWISDISGSSRDIDYADFVKGRFTISRDNATNSLYLQMNSLRAEDTAVYYCVRSGNSGMDVWGRGTLVTVSS VL: QSVLTQPASVSGSPGQSITISCAGTSSDVGGGYYVSWYQQHPGKAPKLMIYYDSYRPSGVSNRFSGSKSGNTASLTISGLQAEDEADYYCSSYTNNSTRVFGGGTKLEIK
